# Test results taken from article PMC3551999.
# B1: TATA(A3) smFRET construct (mixed)
# DNA 1: CAGGCTAAAAAAGGGACG
# DNA 2: CGTCCCTTTTTTAGCCTGCACCACCACCACCACCACCA
# DNA 3: TGGTGGTGGTGGTGGTGGT
# What was measured:
# TBP;TFIIA = TBP;TFIIA (human;human, UniProt P20226;P52655;P52657 1-339;1-376;1-109, |); test: smFRET
# TBP = TBP (human, UniProt P20226 1-339); test: smFRET
# TBP, sequence (P20226 whole entry): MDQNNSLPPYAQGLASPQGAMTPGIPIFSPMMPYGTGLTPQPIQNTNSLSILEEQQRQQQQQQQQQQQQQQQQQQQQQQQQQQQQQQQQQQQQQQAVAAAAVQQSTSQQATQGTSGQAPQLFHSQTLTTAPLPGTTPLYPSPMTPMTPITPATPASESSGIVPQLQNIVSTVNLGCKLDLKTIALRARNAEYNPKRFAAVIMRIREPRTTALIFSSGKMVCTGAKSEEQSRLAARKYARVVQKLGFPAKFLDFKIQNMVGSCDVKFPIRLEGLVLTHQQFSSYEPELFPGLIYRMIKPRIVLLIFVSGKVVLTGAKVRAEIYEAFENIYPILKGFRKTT
# TBP;TFIIA, sequence (P20226 whole entry, chain 1 of 3): as the sequence (P20226 whole entry) above
# TBP;TFIIA, sequence (P52655 whole entry, chain 2 of 3): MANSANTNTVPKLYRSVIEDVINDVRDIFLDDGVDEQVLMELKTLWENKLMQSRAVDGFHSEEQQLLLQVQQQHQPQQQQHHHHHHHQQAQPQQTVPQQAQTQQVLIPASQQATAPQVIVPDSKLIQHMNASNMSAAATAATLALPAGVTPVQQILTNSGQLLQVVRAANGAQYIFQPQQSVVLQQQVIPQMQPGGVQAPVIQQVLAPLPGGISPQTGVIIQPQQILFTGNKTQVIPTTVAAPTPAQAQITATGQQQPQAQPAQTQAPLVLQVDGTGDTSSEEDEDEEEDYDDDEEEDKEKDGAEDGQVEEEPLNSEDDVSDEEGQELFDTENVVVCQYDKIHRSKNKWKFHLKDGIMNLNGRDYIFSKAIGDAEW
# TBP;TFIIA, sequence (P52657 whole entry, chain 3 of 3): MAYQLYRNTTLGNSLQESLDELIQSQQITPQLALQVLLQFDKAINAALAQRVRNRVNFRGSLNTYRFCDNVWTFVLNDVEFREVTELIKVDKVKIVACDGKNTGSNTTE
binder,measurement,setting,value
B1,binding result,TBP;TFIIA,binds
same,binding result,TBP,binds
